Assay results published in patent US5854216A, “Marker for growth hormone-releasing factor receptors” (Universite de Montreal, priority 1996, dated 1998).
Square brackets hold non-standard residues; d marks the D form. Peptide text beside a SMILES is read from it.

How the values were obtained:
[1] = target: T1, GRF receptor of rat adenopituitary (rat, UniProt Q02644-2); assay: displacement of 125I-Tyr10 hGRF(1-44)NH2 from rat anterior pituitary homogenate
T1 sequence: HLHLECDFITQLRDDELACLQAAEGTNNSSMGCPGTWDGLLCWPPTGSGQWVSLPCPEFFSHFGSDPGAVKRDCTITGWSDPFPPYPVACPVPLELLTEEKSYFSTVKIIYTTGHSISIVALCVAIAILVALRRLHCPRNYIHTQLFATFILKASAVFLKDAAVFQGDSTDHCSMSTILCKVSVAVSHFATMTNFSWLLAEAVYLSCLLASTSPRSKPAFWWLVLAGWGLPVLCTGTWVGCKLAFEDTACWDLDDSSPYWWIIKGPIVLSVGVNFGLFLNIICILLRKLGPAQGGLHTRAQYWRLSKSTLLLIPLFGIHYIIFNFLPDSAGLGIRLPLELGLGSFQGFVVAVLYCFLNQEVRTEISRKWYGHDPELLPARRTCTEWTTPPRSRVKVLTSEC

[2] = target: T2, GRF receptors ([^125 I-Tyr^10 ]hGRF(1-44)NH2 binding sites in rat adenopituitary) (Rattus norvegicus, UniProt Q02644); assay: Competitive binding assay with [^125 I-Tyr^10 ]hGRF(1-44)NH2 on anterior pituitary homogenates; details: for Hill coef. / Relative affinity / IC50: Table 11; for Relative affinity: ratio IC50 of hGRF(1-29)NH2 /IC50 analogue; for IC50: mean±SD of 2 or mean±SE of 3 experiments for analogues, mean±SE of 11 for hGRF(1-29)NH2
T2 construct: from tissue; host or cells: rat anterior pituitary homogenate
T2 sequence (Q02644 23-423 isoform Q02644-2 limits assumed): T1 sequence
Protocol: The binding of [^125 I-Tyr^10 ]hGRF(1-44)NH2 was performed on anterior pituitary homogenates as previously described (Gaudreau P. et al., J. Biol. Chem., 1992, 35:1864-1869). Briefly, anterior pituitaries (pit.) were dissected out, rinsed and homogenized for 8 sec with a Micro Ultrasonic Cell Disrupter™, in ice-cold 50 mM Tris-HCl buffer, pH 7.4, containing 5 mM MgCl2 and 5 mM EDTA (1 pit./0.5 ml). These homogenates were used immediately. Competition studies were performed using 35-50 pM [^125 I-Tyr^10 ]hGRF(1-44)NH2 as radio-ligand,50 μl of homogenate (70 to 75 μg of protein), and increasing concentrations of Nε-CF-[Lys^31 ]hGRF or other GRF analogues (0-1000 nM) or with 2.4 μM rGRF(1-29)NH2 for determination of non-specific binding, in a total volume of 300 μl of Tris-HCl buffer, pH 7.4, containing 5 mM EDTA, 5 mM MgCl2 and 0.42% BSA. Incubations were carried out at 23° C. for 60 min and stopped by centrifugation (12,000 g, 5 min, at 4° C.). The radioactivity content in the pellet was measured by gamma counting. The affinity of hGRF(1-29)NH2 was tested in each experiment to assess the validity of the assay and determine the relative affinity of the analogues. […] The Hill values indicate that all these peptides bind to the high and low affinity GRF binding sites found in the anterior pituitary.

Molecule | IC50 [1] [µM] | Relative affinity (%) against hGRF(1-29)NH2 [1] [%] | further results
4'-benzoyl-phenylalyl^10 !hGRF(1-29)NH2 (from UniProt P01286) (peptide) | 0.00577 | 45 | –
4'-benzoyl-phenylalyl^10 ]hGRF(1-29)NH2 [bpa^10] | – | – | IC50 (in words) [2]: low nanomolar range; affinity for adenopituitary GRF receptors (in words) [2]: high affinity
4'-nitro-phenylalanine^10 !hGRF(1-29)NH2 (from UniProt P01286) (peptide) | 0.00443 | 60 | –
4'-nitro-phenylanalylalanine^9 !hGRF(1-29)NH2 (from UniProt P01286) (peptide) | 0.00997 | 27 | –
CC[C@H](C)[C@H](NC(=O)[C@H](C)NC(=O)[C@H](CC(=O)O)NC(=O)[C@@H](C)NC(=O)[C@@H](N)Cc1ccc(O)cc1)C(=O)N[C@@H](Cc1ccccc1)C(=O)N[C@H](C(=O)N[C@@H](C)C(=O)N[C@@H](CO)C(=O)N[C@H](Cc1ccc(O)cc1)C(=O)N[C@@H](CCCNC(=N)N)C(=O)N[C@@H](CCCCN)C(=O)N[C@H](C(=O)N[C@@H](CC(C)C)C(=O)N[C@@H](C)C(=O)N[C@@H](CCC(N)=O)C(=O)N[C@@H](CC(C)C)C(=O)N[C@@H](CO)C(=O)N[C@@H](C)C(=O)N[C@@H](CCCNC(=N)N)C(=O)N[C@H](CCCCN)C(=O)N[C@@H](CCCCN)C(=O)N[C@@H](CC(C)C)C(=O)N[C@@H](CCC(N)=O)C(=O)N[C@@H](CC(=O)O)C(=O)N[C@H](C(=O)N[C@@H](CCSC)C(=O)N[C@@H](CO)C(=O)N[C@@H](CCCNC(=N)N)C(N)=O)[C@@H](C)CC)C(C)C)[C@@H](C)O (H-Y[dA]DAIFTAS[dY]RKVLAQLSAR[dK]KLQDIMSR-NH2) | – | – | Hill coef. [2]: 0.63 ± 0.07; Relative affinity [2]: 500 ± 91%
CC[C@H](C)[C@H](NC(=O)[C@H](C)NC(=O)[C@H](CC(=O)O)NC(=O)[C@@H](C)NC(=O)[C@@H](N)Cc1ccc(O)cc1)C(=O)N[C@@H](Cc1ccccc1)C(=O)N[C@H](C(=O)N[C@@H](C)C(=O)N[C@@H](CO)C(=O)N[C@@H](Cc1ccc(O)cc1)C(=O)N[C@@H](CCCNC(=N)N)C(=O)N[C@@H](CCCCN)C(=O)N[C@H](C(=O)N[C@@H](CC(C)C)C(=O)N[C@@H](C)C(=O)N[C@@H](CCC(N)=O)C(=O)N[C@@H](CC(C)C)C(=O)N[C@@H](CO)C(=O)N[C@@H](C)C(=O)N[C@@H](CCCNC(=N)N)C(=O)N[C@@H](CCCCN)C(=O)N[C@@H](CCCCN)C(=O)N[C@@H](CC(C)C)C(=O)N[C@@H](CCC(N)=O)C(=O)N[C@@H](CC(=O)O)C(=O)N[C@H](C(=O)N[C@@H](CCSC)C(=O)N[C@@H](CO)C(=O)N[C@@H](CCCNC(=N)N)C(N)=O)[C@@H](C)CC)C(C)C)[C@@H](C)O [D-Ala^2, Ala^8, Ala^15, Lys^22] (H-Y[dA]DAIFTASYRKVLAQLSARKKLQDIMSR-NH2; N-terminus assumed) | – | – | Hill coef. [2]: 0.53 ± 0.06; IC50 [2]: 0.00018 ± 8e-05 µM; Relative affinity [2]: 1333 ± 31%
CC[C@H](C)[C@H](NC(=O)[C@H](C)NC(=O)[C@H](CC(=O)O)NC(=O)[C@@H](C)NC(=O)[C@@H](N)Cc1ccc(O)cc1)C(=O)N[C@@H](Cc1ccccc1)C(=O)N[C@H](C(=O)N[C@@H](CC(N)=O)C(=O)N[C@@H](CO)C(=O)N[C@H](Cc1ccc(O)cc1)C(=O)N[C@@H](CCCNC(=N)N)C(=O)N[C@@H](CCCCN)C(=O)N[C@H](C(=O)N[C@@H](CC(C)C)C(=O)N[C@H](C)C(=O)N[C@@H](CCC(N)=O)C(=O)N[C@@H](CC(C)C)C(=O)N[C@@H](CO)C(=O)N[C@@H](C)C(=O)N[C@@H](CCCNC(=N)N)C(=O)N[C@@H](CCCCN)C(=O)N[C@@H](CCCCN)C(=O)N[C@@H](CC(C)C)C(=O)N[C@@H](CCC(N)=O)C(=O)N[C@@H](CC(=O)O)C(=O)N[C@H](C(=O)N[C@@H](CCSC)C(=O)N[C@@H](CO)C(=O)N[C@@H](CCCNC(=N)N)C(N)=O)[C@@H](C)CC)C(C)C)[C@@H](C)O [D-Ala^2, D-Tyr^10, D-Ala^15, Lys^22] (H-Y[dA]DAIFTNS[dY]RKVL[dA]QLSARKKLQDIMSR-NH2) | – | – | IC50 [2]: 0.00249 ± 0.00098 µM
D-Ala^2, Ala^8, Ala^15, Lys^22 analogue of hGRF(1-29)NH2 (Table 11, No. 13) (from UniProt P01286) (peptide) | – | 1330 | –
D-Ala^2, Ala^8, D-Tyr^10, Ala^15, D-Lys^21, Lys^22 analogue of hGRF(1-29)NH2 (Table 11, No. 14) (from UniProt P01286) (peptide) | 0.00048 | 500 | –
D-Ala^2, D-Tyr^10,D-Ala^15,Lys^22 ! hGRF(1-29)NH2 (from UniProt P01286) (peptide) | – | 104 | –
D-Ala^2,D-Tyr^10 ! hGRF(1-29)NH2 (from UniProt P01286) (peptide) | 0.00965 | 25 | –
D-Ala^2,D-Tyr^10, D-Lys^21 ! hGRF(1-29)NH2 (from UniProt P01286) (peptide) | 0.0116 | 21 | –
D-Ala^2,D-Tyr^10,Lys^22 ! hGRF(1-29)NH2 (from UniProt P01286) (peptide) | – | 490 | –
His^1, bpa^9, Nle^27 analogue of hGRF(1-29)NH2 (Table 7, number 17) (from UniProt P01286) (peptide) | 0.0044 | 61 | –
bpa^0 analogue of hGRF(1-29)NH2 (Table 7, number 13) (from UniProt P01286) (peptide) | 0.0345 | 8 | –
bpa^4 analogue of hGRF(1-29)NH2 (Table 7, number 14) (from UniProt P01286) (peptide) | 0.0647 | 4 | –
bpa^9 analogue of hGRF(1-29)NH2 (Table 7, number 15) (from UniProt P01286) (peptide) | 0.0284 | 9 | –
npa0 analogue of hGRF(1-29)NH2 (Table 7, number 2) (from UniProt P01286) (peptide) | – | 14 | –
npa^1 analogue of hGRF(1-29)NH2 (Table 7, number 3) (from UniProt P01286) (peptide) | 0.376 | 7 | –
npa^2 analogue of hGRF(1-29)NH2 (Table 7, number 4) (from UniProt P01286) (peptide) | 0.751 | 0.3 | –
npa^3 analogue of hGRF(1-29)NH2 (Table 7, number 5) (from UniProt P01286) (peptide) | 0.197 | 1.3 | –
npa^4 analogue of hGRF(1-29)NH2 (Table 7, number 6) (from UniProt P01286) (peptide) | 0.00865 | 31 | –
npa^5 analogue of hGRF(1-29)NH2 (Table 7, number 7) (from UniProt P01286) (peptide) | 0.0277 | 10 | –
npa^6 analogue of hGRF(1-29)NH2 (Table 7, number 8) (from UniProt P01286) (peptide) | 0.0309 | 8.6 | –
npa^7 analogue of hGRF(1-29)NH2 (Table 7, number 9) (from UniProt P01286) (peptide) | 0.0337 | 7.9 | –
npa^8 analogue of hGRF(1-29)NH2 (Table 7, number 10) (from UniProt P01286) (peptide) | 0.0541 | 5 | –
octanoyl^30,Cys^31 ! hGRF(1-29)NH2 (from UniProt P01286) (peptide) | – | 35 | –
